Where no end group is shown, it is not given here. [ ]: non-standard residue; d: D form. Aib = CC(C)(N)C(=O)O
Assays:
[1] = molecular target: isolated N-terminal extracellular domain of the GLP-1 receptor (nGLP-1R) (UniProt P43220); experiment: SPA competition: displacement of 125I-Exendin-4(9-39) from nGLP-1R
human GLP-1 receptor [2] = molecular target: T1, human GLP-1 receptor (human, UniProt P43220 24-463); experiment: cell-based or functional assay
human GLP-1 receptor [3] = molecular target: T1, human GLP-1 receptor; experiment: SPA competition: displacement of 125I-GLP-1 from BHK tk-ts13 membranes with the human GLP-1 receptor
Procedure: Test compounds/peptides, membranes, SPA-particles and [¹²⁵I] are diluted in assay buffer. 25 ul (micro liter) of test compounds/peptides are added to Optiplate. Buffer is added (50 ul). Add 5-10 ug protein/sample (50 ul) corresponding to 0.1-0.2 mg protein/ml (to be preferably optimised for each membrane preparation). Add SPA-particles (Wheatgerm agglutinin SPA beads) RPNQ 0001) 0.5 mg/well (50 ul). […] The plates are sealed with PlateSealer. Incubate for 120 minutes at 30° C. while shaking. The plates are centrifuged (1500 rpm, 10 min) and counted in Topcounter.

[4] = molecular target: T2, isolated N-terminal extracellular domain of the GLP-1 receptor (nGLP-1R) (UniProt P43220 24-145, limits assumed, biotinylated with BNHS, immobilized on streptavidin-coated SPA beads); experiment: SPA competition: displacement of 125I-Exendin-4(9-39) from biotinylated nGLP-1R on streptavidin SPA beads
T2 construct: extracellular domain; also called N-terminal GLP-1 receptor
Procedure: The nGLP1R in 0.1M NaHCO₃ was biotinylated using 75 μg BNHS (Sigma H1759) to 1 mg protein. The biotinylated nGLP1R was subsequently dialyzed against PBS. All reagents and derivatives were diluted in PBS with 0.05% v/v Tween 20. […] The plates were incubated on a shaker at RT for 3 hours. The SPA particles were spun down by centrifugation for 10 min at 1500 rpm and the plates were counted in a TopCount-NXT (PerkinElmer).

For liraglutide (peptide), which IC50 [1] is on record?
The IC50 was 1.5 µM.

B1: [Aib8, Lys20, Glu22, Val25, Arg26, Glu30] GLP-1 (7-33) Amide (peptide)
peptide: H[Aib]EGTFTSDVSSYKEEQAVREFIEWLV-NH2
modifications: N-terminus assumed
SMILES: CC[C@H](C)[C@H](NC(=O)[C@H](Cc1ccccc1)NC(=O)[C@H](CCC(=O)O)NC(=O)[C@H](CCCNC(=N)N)NC(=O)[C@@H](NC(=O)[C@H](C)NC(=O)[C@H](CCC(N)=O)NC(=O)[C@H](CCC(=O)O)NC(=O)[C@H](CCC(=O)O)NC(=O)[C@H](CCCCN)NC(=O)[C@H](Cc1ccc(O)cc1)NC(=O)[C@H](CO)NC(=O)[C@H](CO)NC(=O)[C@@H](NC(=O)[C@H](CC(=O)O)NC(=O)[C@H](CO)NC(=O)[C@@H](NC(=O)[C@H](Cc1ccccc1)NC(=O)[C@@H](NC(=O)CNC(=O)[C@H](CCC(=O)O)NC(=O)C(C)(C)NC(=O)[C@@H](N)Cc1c[nH]cn1)[C@@H](C)O)[C@@H](C)O)C(C)C)C(C)C)C(=O)N[C@@H](CCC(=O)O)C(=O)N[C@@H](Cc1c[nH]c2ccccc12)C(=O)N[C@@H](CC(C)C)C(=O)N[C@H](C(N)=O)C(C)C
For B1, which “EC50 (potency, stimulation of cAMP formation)” value (“EC50” below) (human GLP-1 receptor [2]) is on record?
Its value is less than 0.0003 µM.

For HAEGTFTSDVSSYLEEQAAREFIAWLV-OH [[Glu22, Arg26]GLP-1(7-33)peptide], which “EC50” value (human GLP-1 receptor [2]) is on record?
The value was less than 0.0003 µM.

With HAEGTFTSDVSSYLEEQAAREFIAWLV-NH2 [[Glu22, Arg26]GLP-1 (7-33) Amide] as the molecule, how does the “EC50” value (human GLP-1 receptor [2]) read?
The value was less than 0.0003 µM.

Which “EC50” value (human GLP-1 receptor [2]) does the source give for HAEGTFTSDVSSYLEEQAVREFIAWLV-NH2 [[Glu22, Val25, Arg26] GLP-1 (7-33)amide] here?
Its value is less than 0.0003 µM.

B2: truncated natural, human GLP-1(7-33) (peptide)
peptide: HAEGTFTSDVSSYLEGQAAKEFIAWLV
modifications: ends and bridges not checked
notes: also called truncated natural GLP-1; truncated natural GLP-1(7-3)) peptide
Which results are given for B2?
EC50 (potency, stimulation of cAMP formation) (human GLP-1 receptor [2]): 0.0113 µM; IC50 (human GLP-1 receptor [3]): 0.241 µM; IC50 [4]: 0.886 µM

— patent publication US20140296131A1 (Novo Nordisk, published 2014)
